Results on one substance are retold here after US20020052480A1.

The target in assay [1] is human fibroblast activation protein alpha (FAP), on the cell surface (HT-1080FAP clone 33, 293FAP I/2, MF-SH cells, tumor stromal fibroblasts) (human) (UniProt Q12884). Put plainly: flow cytometry, HT-1080FAP clone 33 cells, biotinylated antibody at 40.0 ng/ml, streptavidin-FITC.
The target is the same in assay [2]. Kind of assay: flow cytometry, HT-1080FAP clone 33 cells, biotinylated antibody at 1.6 ng/ml, streptavidin-FITC.
Assay [3] has the same target. Put plainly: flow cytometry, HT-1080FAP clone 33 cells, antibody at 20 ng/ml, anti-human IgG FITC.
For assay [4] the target is unchanged. Kind of assay: flow cytometry, HT-1080FAP clone 33 cells, biotinylated antibody at 1,000.0 ng/ml, streptavidin-FITC.
The target is the same in assay [5]. Put plainly: flow cytometry, HT-1080FAP clone 33 cells, biotinylated antibody at 8.0 ng/ml, streptavidin-FITC.
The target is the same in assay [6]. Put plainly: flow cytometry, HT-1080FAP clone 33 cells, biotinylated antibody at 200.0 ng/ml, streptavidin-FITC.
The target is the same in assay [7]. Put plainly: flow cytometry competition against 1 µg/ml biotinylated cF19 on HT-1080FAP clone 33 cells; competitor at 1.00 µg/ml.
For assay [8] the target is unchanged. Kind of assay: flow cytometry, HT-1080FAP clone 33 cells, biotinylated antibody at 5,000.0 ng/ml, streptavidin-FITC.
For assay [9] the target is unchanged. Put plainly: flow cytometry competition against 1 µg/ml biotinylated cF19 on HT-1080FAP clone 33 cells; competitor at 31.66 µg/ml.
Assay [10] has the same target. Put plainly: flow cytometry, HT-1080FAP clone 33 cells, antibody at 0.8 ng/ml, anti-human IgG FITC.
Assay [11] shares this target. Put plainly: flow cytometry, HT-1080FAP clone 33 cells, antibody at 500 ng/ml, anti-human IgG FITC.
Assay [12] shares this target. Put plainly: flow cytometry, HT-1080FAP clone 33 cells, antibody at 4.0 ng/ml, anti-human IgG FITC.
Assay [13] has the same target. Kind of assay: flow cytometry, HT-1080FAP clone 33 cells, antibody at 100 ng/ml, anti-human IgG FITC.
The target is the same in assay [14]. Kind of assay: flow cytometry competition against 1 µg/ml biotinylated cF19 on HT-1080FAP clone 33 cells; competitor at 3.16 µg/ml.
Assay [15] shares this target. Kind of assay: flow cytometry competition against 1 µg/ml biotinylated cF19 on HT-1080FAP clone 33 cells; competitor at 10.00 µg/ml.
For assay [16] the target is unchanged. Put plainly: flow cytometry, MF-SH cells (endogenous FAP), antibody at 4,000 ng/ml.

UniProt Q12884, sequence (Q12884 whole entry): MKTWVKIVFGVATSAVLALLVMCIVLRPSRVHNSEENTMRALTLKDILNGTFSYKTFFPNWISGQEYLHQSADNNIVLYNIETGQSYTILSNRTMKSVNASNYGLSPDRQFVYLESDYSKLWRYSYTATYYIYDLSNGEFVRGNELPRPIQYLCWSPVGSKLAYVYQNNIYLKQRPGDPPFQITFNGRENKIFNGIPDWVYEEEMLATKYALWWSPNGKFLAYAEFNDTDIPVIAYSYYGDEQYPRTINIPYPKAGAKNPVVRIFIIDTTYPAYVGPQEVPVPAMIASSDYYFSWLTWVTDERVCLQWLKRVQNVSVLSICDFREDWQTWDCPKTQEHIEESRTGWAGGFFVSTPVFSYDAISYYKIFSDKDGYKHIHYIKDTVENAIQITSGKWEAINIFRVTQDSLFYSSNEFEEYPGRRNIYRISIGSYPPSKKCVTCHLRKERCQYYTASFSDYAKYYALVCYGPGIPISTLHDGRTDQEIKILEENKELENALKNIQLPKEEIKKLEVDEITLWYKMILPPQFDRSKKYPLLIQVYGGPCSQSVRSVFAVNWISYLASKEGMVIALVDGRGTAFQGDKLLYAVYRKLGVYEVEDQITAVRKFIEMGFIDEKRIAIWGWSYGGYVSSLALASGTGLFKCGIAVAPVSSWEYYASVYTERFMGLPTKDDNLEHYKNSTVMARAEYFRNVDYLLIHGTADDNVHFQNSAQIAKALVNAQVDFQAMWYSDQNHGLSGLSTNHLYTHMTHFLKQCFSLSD

Consider “hIgG1 (human immunoglobulin, IgG1 subclass), isotype control (antibody)”, for which the Mean fluorescence intensity was 0.2 in assay [1]; 0.3 in assay [2]; 0.12 in assay [3]; 0.2 in assay [4]; 0.2 in assay [5]; 0.2 in [6]. The Mean fluorescence intensity amounted to 0.2 in assay [8]; 0.12 in [10]; 0.12 in assay [11]; 0.12 in assay [12]; 0.12 in [13]; 0.6 in assay [16]. In addition, the Mean fluorescence concentration in [7] came out at 9; in assay [9], 10.3; in [14], 11.3; in assay [15], 9.8.
